Entries after “also recorded” stand apart in the source; their conditions may differ.
Key:
[1] = molecular target: T1, insulin disulfides (heterodimeric insulin) (Homo sapiens, UniProt P01308); test: single-turnover insulin protein disulfide reduction assay (RP-HPLC of insulin heterodimer peak); type: biochemical; set-up: % reduction: concentration or dose not given beside the values; details: for % reduction / insulin heterodimer peak (RP-HPLC): pH 8
T1 construct: fully disulfide-bonded heterodimeric insulin
Description: Left side of FIG. 1—polyacrylamide gel electrophoresis of native human thioredoxin-1 (TRX). Lane 1: Molecular weight standards; Lane 2: Oxidized TRX; Lane 3: Oxidized TRX following reaction with dithiothreitol (DTT); Lane 4: Oxidized TRX following reaction with reduced glutathione (GSH); Lane 5: Oxidized TRX following reaction with GSH followed by DTT. Right side of FIG. 1—TRX was oxidized by exposure to ambient air for one week then incubated with either DTT or GSH at pH 8 for 1 hour followed by purification over a size exclusion column to remove unreacted free DTT or GSH after which the TRX was collected and used in a single-turnover insulin protein-disulfide reduction assay. Oxidized TRX (bottom line), TRX reduced with DTT (top line) or TRX reduced with GSH (middle line) were incubated with fully disulfide-bonded heterodimeric insulin at pH 8. After 30 min, 60 min and 120 minutes aliquots were taken and diluted with 0.1% TFA and 17 uM (final) iodoacetic acid and analyzed over RP-HPLC. Absorbance was monitored at 214 nm and the peak area of the insulin heterodimer fraction was determined at each time point to quantify TRX protein disulfide-reducing activity.
C35STRX was oxidized and Lys residues were conjugated to an azido-PEG linker. The conjugated material was then reduced and tested for molecular weight using SDS-PAGE (FIG. 5D) and MALDI-TOF (FIG. 5E) and activity assessed using a single-turnover insulin protein disulfide reduction assay. From the gel and MALDI-TOF results there is no free C35STRX; however, the conjugated material retained about 33% of its activity in the insulin assay as compared to unreacted reduced C35STRX. See FIGS. 5A-5E and their descriptions above.
Insulin Activity Assay with C35STRX and Azido-C35STRX: C35STRX OD280 was 11.8, corresponding to a concentration of 1.69 mM. C35STRX a OD280 was 15, corresponding to a concentration of 2.14 mM. Azido-C35STRX OD280 was 4.0, corresponding to a concentration of 0.57 mM. pH 8 Insulin stock: […] of Tris pH8 and 572 µL H2O and 25 µL of insulin (10 mg/mL) and 10 µL of 0.5 M EDTA. C35STRX stock was 0.5 mM. Azido-C35STRX stock was 0.5 mM concentration.
The reaction was stopped by addition of 10 µL of 1 M iodoacetic acid and 400 µL of 0.1% TFA. Samples were analyzed by RP-HPLC for changes in the insulin heterodimer peak.

[2] = DTNB assay (percent reduction state, free sulfhydryl); type: physicochemical; details: Table 1
Description: C35STRX-antibiotic conjugates are dissolved in PBS to the original volume before lyophilization and assayed for stability over seven days in comparison to non-conjugated reduced C35STRX. C35STRX-antibiotic conjugate concentration is measured by BCA protein assay (Pierce). […] Degradation/aggregation of C35STRX-antibiotic conjugates is determined by the percentage of C35STRX-antibiotic conjugate monomers assayed by SEC using an Agilent 1100 HPLC system and a BioBasic SEC-300 250×4.6 column (ThermoScientific) with a 40 mM Na acetate, 450 mM Na chloride 2 mM EDTA (pH 5.5) buffer at a flow rate 0.350 mL/min and detection by absorbance at 280 nm (A280).
Codon-optimized synthetic oligonucleotides encoding Lys to Ala mutants of C35STRX cloned into vector pD861 (Atum, Newark, Calif.) are expressed solubly in BL21 ΔrhaB E. coli under rhamnose induction (0.1% w/v, 26 deg C.) in APF-LB medium with 0.05% w/v glucose substrate at an O.D.600 of 0.8 in 2.8 L Fernbach shake flasks at NRC (Montreal Canada). Following cell pellet lysis (EmulsiFlex-C3, Avestin, Ottawa Canada) protein is purified from clarified extracts using anion exchange chromatography (FPLC, Akta) and 5 kDa ultrafiltration/diafiltration (UF/DF). […] Physical characterization: C35S(KA)TRX concentration is measured by BCA Protein assay (Pierce).

[3] = test system: extracellular airway mucus; test: immunohistochemical detection of thioredoxin after IT delivery to rat airways; type: in vivo; details: intratracheal (IT) delivery, IHC
Text: FIG. 4 Immunohistochemical detection of thioredoxin following IT delivery to rat airways via Penn-Century micro-sprayer. […] Animals were sacrificed 4 hr post-dose and excised lungs fixed, sectioned and analyzed by IHC for immunodetection of thioredoxin.
Conversion of the thioredoxin active site to a monothiol allows thioredoxin homologue protein to remain covalently attached to targeted disulfides once it has reacted. […] Reduced thioredoxin homologue protein can remain bound to extracellular airway mucus for at least 4 hours following intratracheal (IT) delivery to normal rats with normal mucus as visualized by immunohistochemical detection (brown staining; FIG. 4, Top) using anti-human thioredoxin antisera. […] While time points later than 4 hours were not included in this study, normalization of mucociliary transport in human airway mucus on epithelia for up to 24 hours is observed confirming similar residence time/mucin binding duration for mucoadhesive conjugates.
Conversion of the thioredoxin active site to a reduced Cys32 monothiol allows thioredoxin variants to remain covalently attached to targeted disulfides once reacted. […]

[4] = test system: mice; details: mouse, in vivo
[5] = test system: human airway mucus on epithelia; test: normalization of mucociliary transport in human airway mucus on epithelia; type: cell-based
[6] = test system: rats; test: acute aerosol toxicity (nebulizer); type: in vivo
[7] = test system: human primary bronchial epithelia from CF and normal donors; type: cell-based
[8] = test system: target proteins; test: disulfide linkage to target proteins in vitro by HPLC and gel-shift; type: binding
[9] = test system: rat; details: in vivo
[10] = literature values; cited from earlier work
[11] = test system: porcine gastric mucin; test: mucin binding direct ELISA; details: reduced biotinylated conjugate, various mucin concentrations
Description: To establish the feasibility of covalently binding conjugated monocysteinic active site Cys32-Ser35 thioredoxin (C35STRX) to mucins, conjugation of C35STRX via its N-terminal NH2 to a model payload (biotin) using EZ-Link™ Sulfo-NHS-SS-Biotin (ThermoFisher) was carried out. Dithiothreitol (DTT, 0.1 M) was used to generate active C35STRX conjugates by reduction of the C35STRX active site Cys. Following DTT removal (NAPS column, GE Healthcare), the mucin binding ability of reduced biotinylated 0.02 C35STRX was evaluated by direct ELISA using 96 well plates 0 (Costar 3370) coated with 100 μl of various concentrations of porcine gastric mucin (Sigma) in 100 mM Tris-HCl buffer (pH 9). 100 μL of biotinylated C35STRX in 50 mM Tris (pH 8) and 1 mM EDTA was then added and incubated for 2 hours, with washes performed between each step. 50 μL of avidin-horseradish peroxidase (HRP) was added and incubated for 30 min followed by 50 μL of tetramethylbenzidine (TMB) substrate. Reactions were stopped after 5 min with 100 μl 1N sulfuric acid. Absorbance at […] (Molecular Devices SpectraMax i3) was plotted against mucin concentration.

T1 sequence (P01308 25-54 limits assumed): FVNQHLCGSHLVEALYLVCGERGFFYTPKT
T1 sequence (P01308 90-110 limits assumed): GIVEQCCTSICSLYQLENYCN

B1: Azido-C35STRX (conjugate, UniProt P10599 2-105, looked up, variant C35S)
Thioredoxin: VKQIESKTAFQEALDAAGDKLVVVDFSATWCGPSKMIKPFFHSLSEKYSNVIFLEVDVDDCQDVASECEVKCMPTFQFFKKGQKVGEFSGANKEKLEATINELV
modifications: azido group
% reduction ([1]; Table 3, 0 min): 0%
insulin heterodimer peak (RP-HPLC) ([1]; Table 3, 0 min): 8959.8
% reduction ([1]; Table 3, 90 min): 32.69%
insulin heterodimer peak (RP-HPLC) ([1]; Table 3, 90 min): 6030.6
% reduction ([1]; Table 4, 0 min): 0%
insulin heterodimer peak (RP-HPLC) ([1]; Table 4, 0 min): 10213
% reduction ([1]; Table 4, 90 min): 33.07%
insulin heterodimer peak (RP-HPLC) ([1]; Table 4, 90 min): 6835
activity retained in the insulin assay as compared to unreacted reduced C35STRX ([1]; up to 11 azido-PEG linkers on Lys): about 33%
% reduced [2]: 106.6%

B2: C35STRX: monocysteinic active site Cys32-Ser35 variant of human thioredoxin-1, mucus-targeting scaffold (protein)
chain: MVKQIESKTAFQEALDAAGDKLVVVDFSATWCGPSKMIKPFFHSLSEKYSNVIFLEVDVDDCQDVASECEVKCMPTFQFFKKGQKVGEFSGANKEKLEATINELV
time remaining bound to extracellular airway mucus ([3]; normal rats): at least 4 hours
adverse inflammatory effects in lavage fluid [4]: No adverse inflammatory effects
% reduction ([1]; Table 3, 0 min): 0%
insulin heterodimer peak (RP-HPLC) ([1]; Table 3, 0 min): 8515.4
% reduction ([1]; Table 3, 90 min): 99.40%
insulin heterodimer peak (RP-HPLC) ([1]; Table 3, 90 min): 50.2
% reduction ([1]; Table 4, 0 min): 0%
insulin heterodimer peak (RP-HPLC) ([1]; Table 4, 0 min): 10602
% reduction ([1]; Table 4, 90 min): 97.70%
insulin heterodimer peak (RP-HPLC) ([1]; Table 4, 90 min): 243.2
duration of normalization of mucociliary transport [5]: up to 24 hours
toxic effects in normal animals treated by aerosol ([6]; normal animals, aerosol, high dose levels): lack of observed toxic effects
local or systemic toxicity, histopathology ([6]; rats dosed acutely, aerosol via nebulizer, highest delivered concentration 40 mg/kg): No local or systemic toxicity or histopathological anomalies
adverse inflammatory effects in vitro [7]: No adverse inflammatory effects
% reduced [2]: 109.4%
disulfide linkage to target proteins [8]: stable disulfide linkages to target proteins
adverse inflammatory effects in lavage fluid [9]: No adverse inflammatory effects

B3: Oxidized (inactive) C35STRX: oxidized, inactive form of C35STRX used as control (protein)
chain: MVKQIESKTAFQEALDAAGDKLVVVDFSATWCGPSKMIKPFFHSLSEKYSNVIFLEVDVDDCQDVASECEVKCMPTFQFFKKGQKVGEFSGANKEKLEATINELV
binding to mucus or the epithelial surface ([3]; rats, 4 hr post-dose): did not bind mucus or the epithelial surface

B4: TRX: endogenously secreted human epithelial protein thioredoxin-1, small (12 kDa) redox enzyme (protein)
chain: MVKQIESKTAFQEALDAAGDKLVVVDFSATWCGPCKMIKPFFHSLSEKYSNVIFLEVDVDDCQDVASECEVKCMPTFQFFKKGQKVGEFSGANKEKLEATINELV
pKa of catalytic Cys thiol [10]: 6.2

B5: biotinylated C35STRX (conjugate)
chain: MVKQIESKTAFQEALDAAGDKLVVVDFSATWCGPSKMIKPFFHSLSEKYSNVIFLEVDVDDCQDVASECEVKCMPTFQFFKKGQKVGEFSGANKEKLEATINELV
mucin binding [11]: bind mucin in a dose-dependent fashion; also recorded: maintained full mucin binding activity with linear kinetics
